Reference: patent US9873733B2, “Anti-staphylococcal antibodies” (priority 2012, dated 2018)
Changes are numbered by the printed parent chain.

Tests used:
[1] = tested on: Staphylococcus aureus clinical isolate USA300 (MRSA); test: Growth inhibition of clinical isolate USA300 by nisin; type: cell-based; conditions: nisin 4.5 μg/ml
Description: (§1) Therefore S. aureus (S. aureus SA113) cells grown to mid-log phase were used to inoculate fresh TSB medium. These cultures were mixed with anti-MprF (1 μM) antibody or control IgG respectively or with anti-MprF (1 μM) antibody or control IgG in combination with nisin (6 μg/ml). The growth of the S. aureus in presence of anti-MprF antibody was monitored in culture plates shaking at 37° C. by measuring OD600. […] (FIG. 7)
In this experiment growth inhibition of Staphylococcus aureus clinical isolate USA300 by nisin was tested in the presence of an MprF specific antibody.
The experiment was performed as described in Example 5. Instead of S. aureus SA113 the clinical isolate S. aureus USA300 was used. The concentration of nisin was 4.5 μg/ml instead of 6 μg/ml nisin.

[2] = tested on: S. aureus SA113; test: Growth inhibition assay with nisin; type: cell-based, Staphylococcus aureus; conditions: nisin 6 μg/ml
Description: as §1

[3] = tested on: Staphylococcus aureus clinical isolate 703; test: Killing of clinical isolate 703 by daptomycin; type: cell-based; conditions: 11 μg/ml daptomycin, in the presence of the anti-lysozyme antibody
Description: (§2) Overnight cultures of S. aureus SA113 Δspa were diluted in fresh MHB medium and adjusted to OD600 0.25 (˜1.5×10^7 cells). Antibodies were adjusted to a concentration of 1 mg/ml and 10 μl were applied per well of a 96 well plate and diluted in 90 μl of the adjusted cell suspension (final antibody concentration: 100 μg/ml). Cells were grown in the presence of anti-lysozyme antibody (control) or with the anti-MprF antibodies. Duplicates were employed for each assay. After 3 hours of incubation under shaking conditions at 37° C., optical density was determined, adjusted to OD600 0.025 in 500 μl ice cold PBS buffer. 80 μl of the adjusted cell suspension were diluted with 20 μl of antimicrobial substances to final concentrations of 22.5 μg/ml nisin. After incubation for 2 hours under shaking conditions at 37° C., the cell suspensions were diluted 1:2000 and 100 μl of each duplicate was plated in triplicates on TSB medium containing agar plates to obtain a representative value of bacterial survival. Cells treated without antimicrobial substance were set at 100% and survival values were calculated with cells treated with antimicrobial substances. At least three independent assays were employed.
In this experiment killing of Staphylococcus aureus clinical isolate 703 (described in Jones et al., AAC 2008) by daptomycin in the presence of an MprF specific antibody was analyzed. […]

[4] = tested on: Staphylococcus aureus clinical isolate 703; conditions: Jones et al., AAC 2008; cited from earlier work
[5] = tested on: S. aureus SA113 Δspa; test: Killing of S. aureus by nisin with MprF antibodies; type: cell-based, Staphylococcus aureus; conditions: antibody 100 μg/ml, 22.5 μg/ml nisin, 2 hours; anti-lysozyme antibody as control
Description: In this experiment killing of Staphylococcus aureus was tested. Nisin was used as an exemplary cationic antimicrobial compound. Nisin was tested in combination with selected antibodies of the present invention. An anti-lysozyme antibody was used as a negative control.
as §2

[6] = target: cyclic peptide representing loop 4 of MprF (Staphylococcus aureus, UniProt Q2G2M2); conditions: IgG in PBS; biotinylated cyclic peptide 5 μg/ml
Description: (§3) The IgGs were tested for binding to the antigen, which was used in their selection. Also binding to other MprF-peptides was tested to check for selectivity.
(§4) For ELISAs with cyclic antigen, the biotinylated cyclic peptides (final conc. 5 μg/ml) were incubated with IgGs in PBS. Then the mix was transferred to a pre-blocked Neutravidin plate (Thermo Scientific), incubated and then the plate was washed with PBS containing 0.5% of TWEEN20. MprF-specific IgGs were detected using goat-anti-human IgG (Sigma).
(§5) In both cases washing was performed using PBST ([…] with 0.05% TWEEN20. Detection was performed using alkaline phosphatase coupled Goat anti-human IgG (Sigma Cat. # A-8542 and Attophos™ substrate Roche, Cat. #11681982001). Fluorescence was measured at an excitation of 440±25 nm and an emission of 550±35 nm. Full signal intensity is typically reached after 5-15 min at room temperature.

[7] = tested on: MprF on S. aureus (Protein A deletion mutant, delta spa); test: Whole cell ELISA on S. aureus; type: binding, Staphylococcus aureus; conditions: E. coli as negative control
Description: (§6) The specificity of the purified antibodies was tested for binding to whole cell Staphylococcus aureus in an ELISA assay. Escherichia coli bacteria were used as a negative control.
(§7) For ELISA on S. aureus the Protein A deletion mutant (delta spa) or the mutant with an additional deletion in MprF (delta spa delta mprf) were grown to mid log phase, than washed in PBS and resuspended in saline to a final OD600 of 0.6. This bacterial culture was coated on Maxisorp plates (Nunc). Plates were blocked with 2% BSA/PBS and washed with TSB containing 0.5% TWEEN20.

[8] = tested on: S. aureus mutants lacking MprF expression (delta spa delta mprF); test: Whole cell ELISA on S. aureus mutant lacking MprF; type: binding, Staphylococcus aureus; conditions: compared with delta spa
Description: as §6, §7

[9] = target: cyclic peptide representing loop 5 of MprF (Staphylococcus aureus, UniProt Q2G2M2); conditions: IgG in PBS; biotinylated cyclic peptide 5 μg/ml
Description: as §3, §4, §5

[10] = target: cyclic peptide representing loop 6 of MprF (Staphylococcus aureus, UniProt Q2G2M2); conditions: IgG in PBS; biotinylated cyclic peptide 5 μg/ml
Description: as §3, §4, §5

[11] = target: linear peptide representing loop 1 of MprF (Staphylococcus aureus, UniProt Q2G2M2); conditions: IgG at various concentrations; peptide 5 μg/ml
Sequence of linear peptide representing loop 1 of MprF (Q2G2M2 31-50, looked up, natural form): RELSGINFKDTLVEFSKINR
Description: as §3
MprF-specific IgGs were detected using goat-anti-human IgG (Sigma).
as §5

With nisin the “Growth of S. aureus USA300, nisin alone” value [1] was “an effect of nisin alone in terms of reducing bacterial growths was observed” and the “Growth of S. aureus (OD600), nisin alone” value [2] was “an effect of nisin alone in terms of reducing growths of bacteria was observable”.

For `CCCCCCCCCC(=O)N[C@@H](Cc1c[nH]c2ccccc12)C(=O)N[C@H](CC(N)=O)C(=O)N[C@@H](CC(=O)O)C(=O)N[C@@H]1C(=O)NCC(=O)N[C@@H](CCCN)C(=O)N[C@@H](CC(=O)O)C(=O)N[C@H](C)C(=O)N[C@@H](CC(=O)O)C(=O)NCC(=O)N[C@H](CO)C(=O)N[C@@H]([C@H](C)CC(=O)O)C(=O)N[C@@H](CC(=O)c2ccccc2N)C(=O)O[C@@H]1C` [daptomycin, reference compound], the “Effect of daptomycin on S. aureus 703” value [3] is given as “no effect on S. aureus 703” and the “Responsiveness of S. aureus clinical isolate 703 to daptomycin” value [4] is given as “non-responsive to daptomycin”.

B1: M-C4.2: human IgG1 against cyclic peptide, loop 4 of MprF; VH3-23 kappa 1; VL Seq. ID: 54, VH Seq. ID: 55 (antibody, V domains shown)
VH: EVQLLESGGGLVQPGGSLRLSCAASGFTFSSYAMHWVRQAPGKGLEWVSVISSVGSSTYYADSVKGRFTISRDNSKNTLYLQMNSLRAEDTAVYYCARGGLDVWGQGTLVTVSS
VL: DIQMTQSPSSLSASVGDRVTITCRASQDISKYLNWYQQKPGKAPKLLIYAASRLQSGVPSRFSGSGSGTDFTLTISSLQPEDFATYYCQQGDSTPFTFGQGTKVEIKRT
modifications: MC42 VH; MC42 VL
notes: human IgG1 against cyclic peptide, loop 4 of MprF; VH3-23 kappa 1; ID: 55
In the case of B1, the “Sensitivity of S. aureus towards nisin (killing, bacterial survival)” value (shortened to “Sensitivity of S. aureus towards nisin”) [5] is reported as “most pronounced effects” and the “Specific binding to cyclic loop 4 peptide (ELISA)” value [6] is reported as “specifically bind to cyclic loop 4 peptide in a dose-dependent manner”.

B2: M-C5.1: human IgG1 against cyclic peptide, loop 5 of MprF; VH1A kappa 1; VL Seq. ID: 74, VH Seq. ID: 75 (antibody, V domains shown)
VH: QVQLVQSGAEVKKPGSSVKVSCKASGGTFSSYAISWVRQAPGQGLEWMGGIVPIFGTANYAQKFQGRVTITADESTSTAYMELSSLRSEDTAVYYCARVRYGYWDVWGQGTLVTVSS
VL: B1 VL with S30A, K31N, Y32W, R53S, G91Y, D92I, T94L, F96I
modifications: MC51 VH; MC51 VL
notes: human IgG1 against cyclic peptide, loop 5 of MprF; VH1A kappa 1; ID: 75
For B2, the “Binding to whole cell S. aureus (ELISA)” value [7] was “detect MprF on S. aureus”, the “Binding to S. aureus mutants lacking MprF expression (ELISA)” value [8] was “significantly weaker binding” and the “Sensitivity of S. aureus towards nisin” value [5] was “most pronounced effects”. For the same molecule, the “Specific binding to cyclic loop 5 peptide (ELISA)” value [9] was “specifically bind to cyclic loop 5 peptide in a dose-dependent manner”.

B3: M-C6.2: human IgG1 against cyclic peptide, loop 6 of MprF; VH1A kappa 1; VL Seq. ID: 104, VH Seq. ID: 105 (antibody, V domains shown)
VH: QVQLVQSGAEVKKPGSSVKVSCKASGGTFSSYAISWVRQAPGQGLEWMGGIIPILGIANYAQKFQGRVTITADESTSTAYMELSSLRSEDTAVYYCARSLPYRSDLYGFSRWSYHRVGMDVWGQGTLVTVSS
VL: B1 VL with K31N, Y32T, R53T, G91V, D92G, T94F, F96Y
modifications: MC62 VH; MC62 VL
notes: human IgG1 against cyclic peptide, loop 6 of MprF; VH1A kappa 1; ID: 105
In the case of B3, the “Sensitivity of S. aureus towards nisin” value [5] is reported as “most pronounced effects” and the “Specific binding to cyclic loop 6 peptide (ELISA)” value [10] is reported as “specifically bind to cyclic loop 6 peptide in a dose-dependent manner”.

B4: M-L1: human IgG1 against linear peptide, loop 1 of MprF; VH1A kappa 3; VL Seq. ID: 14, VH Seq. ID: 15 (antibody, V domains shown)
VH: QVQLVQSGAEVKKPGSSVKVSCKASGGTFNSYAIHWVRQAPGQGLEWMGGIIPIFGIANYAQKFQGRVTITADESTSTAYMELSSLRSEDTAVYYCARDQYTYDYYRAFDYWGQGTLVTVSS
VL: DIVLTQSPATLSLSPGERATLSCRASQSVRDNLAWYQQKPGQAPRLLIYGASNRATGIPARFSGSGSGTDFTLTISSLEPEDFAVYYCQQYDHSPRTFGQGTKVEIKRT
modifications: ML1 VH; ML1 VL
notes: human IgG1 against linear peptide, loop 1 of MprF; VH1A kappa 3; ID: 15
With B4 the “Specific binding to linear loop 1 peptide (ELISA)” value [11] was “specifically bind to linear loop 1 peptide in a dose-dependent manner”, the “Binding to whole cell S. aureus (ELISA)” value [7] was “detect MprF on S. aureus” and the “Binding to S. aureus mutants lacking MprF expression (ELISA)” value [8] was “significantly weaker binding”.
